Source: US20190309044A1, “POLYPEPTIDES AND USES THEREOF AS A DRUG FOR TREATMENT OF AUTOIMMUNE DISORDERS” (Compugen Ltd., priority 2017, published 2019)

Assays:
Type in all cases: in vivo, mouse
male DBA-1 mice = test: Established collagen induced arthritis (CIA), macroscopic and histological scores
Protocol: Bovine type II collagen (CII) (RUNMC in house production, batch 03-04-08) at a concentration of 2 mg/ml in acetic acid 0.05M was emulsified in equal volumes of Freund's complete adjuvant (2 mg/ml of Mycobacterium tuberculosis strain H37Ra; Difco, Detroit, Mich.).
On day 0, 10-12 week old male DBA-1 mice (Janvier Elevage, France) (n=95) were immunized i.d. at the base of the tail with 100 μg of bovine CII. On day 21, mice received an intraperitoneal booster injection of 50 μg of CII dissolved in phosphate buffered saline (PBS), and the onset of arthritis occurred a few days after this booster.
Joint inflammation in each paw was scored visually, using a scale of 0-2 per paw with a maximal score of 8 per animal: 0=non inflamed, 1=mild inflammation, 1.5=marked inflammation, and 2=severe inflammation. Scoring was performed three times a week.
Treatment was started in established CIA early after onset of disease (i.e. therapeutic regimen), when the macroscopic scores per animal were between 0.25 and 1.25 (on a scale of 0-8). […] Histology was scored for inflammation and destruction on an arbitrary scale of 0-3, for five different parameters: […]
Joints were fixed for at least 4 days in 4% formaldehyde, decalcified in 5% formic acid, and subsequently dehydrated and embedded in paraffin. […] The severity of inflammation in the joints was scored on a scale of 0-3 (0=no cells, 1=mild cellularity, 2=moderate cellularity, and 3=maximal cellularity). […] Depletion of PG was determined using an arbitrary scale of 0-3, ranging from normal, fully stained cartilage to destained cartilage, fully depleted of PGs. Chondrocyte death was scored on a scale of 0-3 ranging from no loss of chondrocyte nuclei to complete empty cartilage surface. The degree of cartilage surface erosion was scored on a scale of 0-3, ranging from no damage to complete loss of articular cartilage. […] Histopathological changes in the joint were scored on three semiserial sections of the joint spaced 70 μm apart. […]

NOD mice = test: Type 1 diabetes incidence in NOD mice; details: Study III; p<0.001
Protocol: The effect of C1ORF32 ECD-Fc treatment on modulation of disease incidence was tested in NOD mice, which spontaneously develop a T1D disease. In NOD mice, autoreactive CD4+ can be observed within the β-islets as early as 2 weeks of age (Yang et al., Immunity. 1996 February; 4(2):189-94), and by 10 weeks of age, when the treatment with C1ORF32 ECD-Fc (SEQ ID NO: 42) began in the present experiments, NOD mice develop peri-insulitis and β-cell loss (Jimeno et al., Immunology and Cell Biology. (2010) 88, 734-745).
Materials: C1ORF ECD-Fc (SEQ ID NO:42) was used in these studies, as described below. Control Ig was mouse IgG2a from BioXcell (Cat# BE0085). NOD mice were purchased from Jackson labs, and blood glucose was measured via sampling a small drop of blood from the tail vein.
Methods: Six week old NOD mice were purchased from Jackson labs. […] Blood glucose levels were monitored weekly from 8 weeks of age until the mice reached […] of age as detailed below. Mice were considered diabetic upon having two consecutive blood glucose readings of >250 mg/dL. Diabetic mice were sacrificed on the day of the second high glucose level reading. Blood glucose levels were obtained from the tail vein, and the level of blood glucose measured via use of a OneTouch. […]

SJL/J mice = test: T cell and Treg counts in spleen and CNS by FACS, R-EAE with IL-10 or TGFb blockade; details: day 44
Source text: On day 44 post disease induction, the rest of the mice were sacrificed and spleens and CNS were taken for cell counts and cell population analysis as described below.
4. Experimental stains (CD45, CD3, CD4, CD25, FoxP3, Nrp-1, and Helios)
9. Gating scheme for flow: Singlets (FSC-A vs. FSC-H)->Cells (SSC-A vs. FSC-A)->Live (VID stain negative cells)->CD45hi->CD3/CD4+->CD25/FoxP3+->Helios/Nrp-1

B1: C1ORF32 ECD-Fc (SEQ ID NO:42): human-mouse fusion protein: human C1ORF32 ECD fused to mouse immunoglobulin Fc (SEQ ID NO:42) (protein)
chain: LQVTVPDKKKVAMLFQPTVLRCHFSTSSHQPAVVQWKFKSYCQDRMGESLGMSSTRAQSLSKRNLEWDPYLDCLDSRRTVRVVASKQGSTVTLGDFYRGREITIVHDADLQIGKLMWGDSGLYYCIITTPDDLEGKNEDSVELLVLGRTGLLADLLPSFAVEIMGSENLYFQGSGEPRGPTIKPCPPCKCPAPNLLGGPSVFIFPPKIKDVLMISLSPIVTCVVVDVSEDDPDVQISWFVNNVEVHTAQTQTHREDYNSTLRVVSALPIQHQDWMSGKEFKCKVNNKDLPAPIERTISKPKGSVRAPQVYVLPPPEEEMTKKQVTLTCMVTDFMPEDIYVEWTNNGKTELNYKNTEPVLDSDGSYFMYSKLRVEKKNWVERNSYSCSVVHEGLHNHHTTKSFSRTPGK
modifications: Fusion protein human C1ORF32-ECD fused to mouse IgG2a Fc
clinical (macroscopic) scores of arthritis (male DBA-1 mice; 10 mg/kg i.p. 3x/wk 2 wks, p<0.001 vs mIgG2a): significantly reduced | overall outcome in three CIA studies (male DBA-1 mice; mouse, in vivo): excellent results in two studies and weak results in one study | incidence of T1D in comparison to Control Ig and PBS (NOD mice): significantly decreased incidence of T1D | leukocytes and T cell counts in the CNS (CD45+, CD4+, CD25+/FoxP3+) (SJL/J mice): pronounced decrease
